Data as given in patent US20150344540A1, “NOVEL GLP-1 RECEPTOR AGONISTS WITH CHOLESTEROL EFFLUX ACTIVITY” (NOVO NORDISK A/S, priority 2012, published 2015).
Where no end group is shown, it is not given here. [ ]: non-standard residue; d: D form. Aib = CC(C)(N)C(=O)O

B1: [Aib8,Glu23,Lys24,Val25,Glu34,Aib36,Lys37]-GLP-1-(7-37)-peptidyl-Glu-Phe-Leu amide (peptide)
peptide: H[Aib]EGTFTSDVSSYLEGEKVKEFIAWLVEG[Aib]KEFL-NH2
modifications: N-terminus assumed
SMILES: CC[C@H](C)[C@H](NC(=O)[C@H](Cc1ccccc1)NC(=O)[C@H](CCC(=O)O)NC(=O)[C@H](CCCCN)NC(=O)[C@@H](NC(=O)[C@H](CCCCN)NC(=O)[C@H](CCC(=O)O)NC(=O)CNC(=O)[C@H](CCC(=O)O)NC(=O)[C@H](CC(C)C)NC(=O)[C@H](Cc1ccc(O)cc1)NC(=O)[C@H](CO)NC(=O)[C@H](CO)NC(=O)[C@@H](NC(=O)[C@H](CC(=O)O)NC(=O)[C@H](CO)NC(=O)[C@@H](NC(=O)[C@H](Cc1ccccc1)NC(=O)[C@@H](NC(=O)CNC(=O)[C@H](CCC(=O)O)NC(=O)C(C)(C)NC(=O)[C@@H](N)Cc1c[nH]cn1)[C@@H](C)O)[C@@H](C)O)C(C)C)C(C)C)C(=O)N[C@@H](C)C(=O)N[C@@H](Cc1c[nH]c2ccccc12)C(=O)N[C@@H](CC(C)C)C(=O)N[C@H](C(=O)N[C@@H](CCC(=O)O)C(=O)NCC(=O)NC(C)(C)C(=O)N[C@@H](CCCCN)C(=O)N[C@@H](CCC(=O)O)C(=O)N[C@@H](Cc1ccccc1)C(=O)N[C@@H](CC(C)C)C(N)=O)C(C)C
B2: [Aib8,Glu23,Val25,Glu34,Lys35,Aib36,Lys37]-GLP-1-(7-37)-peptidyl-Glu-Phe amide (peptide)
peptide: H[Aib]EGTFTSDVSSYLEGEAVKEFIAWLVEK[Aib]KEF-NH2
modifications: N-terminus assumed
SMILES: CC[C@H](C)[C@H](NC(=O)[C@H](Cc1ccccc1)NC(=O)[C@H](CCC(=O)O)NC(=O)[C@H](CCCCN)NC(=O)[C@@H](NC(=O)[C@H](C)NC(=O)[C@H](CCC(=O)O)NC(=O)CNC(=O)[C@H](CCC(=O)O)NC(=O)[C@H](CC(C)C)NC(=O)[C@H](Cc1ccc(O)cc1)NC(=O)[C@H](CO)NC(=O)[C@H](CO)NC(=O)[C@@H](NC(=O)[C@H](CC(=O)O)NC(=O)[C@H](CO)NC(=O)[C@@H](NC(=O)[C@H](Cc1ccccc1)NC(=O)[C@@H](NC(=O)CNC(=O)[C@H](CCC(=O)O)NC(=O)C(C)(C)NC(=O)[C@@H](N)Cc1c[nH]cn1)[C@@H](C)O)[C@@H](C)O)C(C)C)C(C)C)C(=O)N[C@@H](C)C(=O)N[C@@H](Cc1c[nH]c2ccccc12)C(=O)N[C@@H](CC(C)C)C(=O)N[C@H](C(=O)N[C@@H](CCC(=O)O)C(=O)N[C@@H](CCCCN)C(=O)NC(C)(C)C(=O)N[C@@H](CCCCN)C(=O)N[C@@H](CCC(=O)O)C(=O)N[C@@H](Cc1ccccc1)C(N)=O)C(C)C
B3: [Glu23,Val25,Glu34,Lys35,Val36,Lys37]-GLP-1-(7-37)-peptidyl-Glu-Phe-Leu amide (peptide)
peptide: HAEGTFTSDVSSYLEGEAVKEFIAWLVEKVKEFL-NH2
B4: [Ala2,Glu21,Lys29,Val30,Leu31,Glu32,Phe33,Leu34]-Exendin-4-(1-34)-peptide amide (peptide)
peptide: HAEGTFTSDLSKQMEEEAVREFIEWLKNKVLEFL-NH2
B5: [Aib8,Val25,Gln27,Glu34,Lys35,Aib36,Ala37]-GLP-1-(7-37)-peptidyl-Glu-Phe-Leu amide (peptide)
peptide: H[Aib]EGTFTSDVSSYLEGQAVKQFIAWLVEK[Aib]AEFL-NH2
modifications: N-terminus assumed
SMILES: CC[C@H](C)[C@H](NC(=O)[C@H](Cc1ccccc1)NC(=O)[C@H](CCC(N)=O)NC(=O)[C@H](CCCCN)NC(=O)[C@@H](NC(=O)[C@H](C)NC(=O)[C@H](CCC(N)=O)NC(=O)CNC(=O)[C@H](CCC(=O)O)NC(=O)[C@H](CC(C)C)NC(=O)[C@H](Cc1ccc(O)cc1)NC(=O)[C@H](CO)NC(=O)[C@H](CO)NC(=O)[C@@H](NC(=O)[C@H](CC(=O)O)NC(=O)[C@H](CO)NC(=O)[C@@H](NC(=O)[C@H](Cc1ccccc1)NC(=O)[C@@H](NC(=O)CNC(=O)[C@H](CCC(=O)O)NC(=O)C(C)(C)NC(=O)[C@@H](N)Cc1c[nH]cn1)[C@@H](C)O)[C@@H](C)O)C(C)C)C(C)C)C(=O)N[C@@H](C)C(=O)N[C@@H](Cc1c[nH]c2ccccc12)C(=O)N[C@@H](CC(C)C)C(=O)N[C@H](C(=O)N[C@@H](CCC(=O)O)C(=O)N[C@@H](CCCCN)C(=O)NC(C)(C)C(=O)N[C@@H](C)C(=O)N[C@@H](CCC(=O)O)C(=O)N[C@@H](Cc1ccccc1)C(=O)N[C@@H](CC(C)C)C(N)=O)C(C)C
B6: [Ala2,Lys17,Ala18,Arg20,Glu21,Leu27,Glu28,Lys29]-Glucagonyl-(1-29)-Val-Lys-Glu-Phe-Leu amide (peptide)
peptide: HAQGTFTSDYSKYLDSKAAREFVQWLLEKVKEFL-NH2
B7: [Aib8,Glu23,Val25,Glu34,Lys35,Aib36,Lys37]-GLP-1-(7-37)-peptidyl-Glu amide (peptide)
peptide: H[Aib]EGTFTSDVSSYLEGEAVKEFIAWLVEK[Aib]KE-NH2
modifications: N-terminus assumed
SMILES: CC[C@H](C)[C@H](NC(=O)[C@H](Cc1ccccc1)NC(=O)[C@H](CCC(=O)O)NC(=O)[C@H](CCCCN)NC(=O)[C@@H](NC(=O)[C@H](C)NC(=O)[C@H](CCC(=O)O)NC(=O)CNC(=O)[C@H](CCC(=O)O)NC(=O)[C@H](CC(C)C)NC(=O)[C@H](Cc1ccc(O)cc1)NC(=O)[C@H](CO)NC(=O)[C@H](CO)NC(=O)[C@@H](NC(=O)[C@H](CC(=O)O)NC(=O)[C@H](CO)NC(=O)[C@@H](NC(=O)[C@H](Cc1ccccc1)NC(=O)[C@@H](NC(=O)CNC(=O)[C@H](CCC(=O)O)NC(=O)C(C)(C)NC(=O)[C@@H](N)Cc1c[nH]cn1)[C@@H](C)O)[C@@H](C)O)C(C)C)C(C)C)C(=O)N[C@@H](C)C(=O)N[C@@H](Cc1c[nH]c2ccccc12)C(=O)N[C@@H](CC(C)C)C(=O)N[C@H](C(=O)N[C@@H](CCC(=O)O)C(=O)N[C@@H](CCCCN)C(=O)NC(C)(C)C(=O)N[C@@H](CCCCN)C(=O)N[C@@H](CCC(=O)O)C(N)=O)C(C)C
B8: [Aib8,Glu23,Val25,Val29,Gln30,Glu34,Lys35,Aib36,Lys37]-GLP-1-(7-37)-peptidyl-Glu-Phe-Leu amide (peptide)
peptide: H[Aib]EGTFTSDVSSYLEGEAVKEFVQWLVEK[Aib]KEFL-NH2
modifications: N-terminus assumed
SMILES: CC(C)C[C@H](NC(=O)[C@H](Cc1ccccc1)NC(=O)[C@H](CCC(=O)O)NC(=O)[C@H](CCCCN)NC(=O)C(C)(C)NC(=O)[C@H](CCCCN)NC(=O)[C@H](CCC(=O)O)NC(=O)[C@@H](NC(=O)[C@H](CC(C)C)NC(=O)[C@H](Cc1c[nH]c2ccccc12)NC(=O)[C@H](CCC(N)=O)NC(=O)[C@@H](NC(=O)[C@H](Cc1ccccc1)NC(=O)[C@H](CCC(=O)O)NC(=O)[C@H](CCCCN)NC(=O)[C@@H](NC(=O)[C@H](C)NC(=O)[C@H](CCC(=O)O)NC(=O)CNC(=O)[C@H](CCC(=O)O)NC(=O)[C@H](CC(C)C)NC(=O)[C@H](Cc1ccc(O)cc1)NC(=O)[C@H](CO)NC(=O)[C@H](CO)NC(=O)[C@@H](NC(=O)[C@H](CC(=O)O)NC(=O)[C@H](CO)NC(=O)[C@@H](NC(=O)[C@H](Cc1ccccc1)NC(=O)[C@@H](NC(=O)CNC(=O)[C@H](CCC(=O)O)NC(=O)C(C)(C)NC(=O)[C@@H](N)Cc1c[nH]cn1)[C@@H](C)O)[C@@H](C)O)C(C)C)C(C)C)C(C)C)C(C)C)C(N)=O
B9: [Aib8,Glu23,Lys24,Val25,Glu34,Lys35,Aib36,Lys37]-GLP-1-(7-37)-peptidyl-Glu-Phe-Leu amide (peptide)
peptide: H[Aib]EGTFTSDVSSYLEGEKVKEFIAWLVEK[Aib]KEFL-NH2
modifications: N-terminus assumed
SMILES: CC[C@H](C)[C@H](NC(=O)[C@H](Cc1ccccc1)NC(=O)[C@H](CCC(=O)O)NC(=O)[C@H](CCCCN)NC(=O)[C@@H](NC(=O)[C@H](CCCCN)NC(=O)[C@H](CCC(=O)O)NC(=O)CNC(=O)[C@H](CCC(=O)O)NC(=O)[C@H](CC(C)C)NC(=O)[C@H](Cc1ccc(O)cc1)NC(=O)[C@H](CO)NC(=O)[C@H](CO)NC(=O)[C@@H](NC(=O)[C@H](CC(=O)O)NC(=O)[C@H](CO)NC(=O)[C@@H](NC(=O)[C@H](Cc1ccccc1)NC(=O)[C@@H](NC(=O)CNC(=O)[C@H](CCC(=O)O)NC(=O)C(C)(C)NC(=O)[C@@H](N)Cc1c[nH]cn1)[C@@H](C)O)[C@@H](C)O)C(C)C)C(C)C)C(=O)N[C@@H](C)C(=O)N[C@@H](Cc1c[nH]c2ccccc12)C(=O)N[C@@H](CC(C)C)C(=O)N[C@H](C(=O)N[C@@H](CCC(=O)O)C(=O)N[C@@H](CCCCN)C(=O)NC(C)(C)C(=O)N[C@@H](CCCCN)C(=O)N[C@@H](CCC(=O)O)C(=O)N[C@@H](Cc1ccccc1)C(=O)N[C@@H](CC(C)C)C(N)=O)C(C)C
B10: [Aib8,Glu23,Lys24,Val25,Glu30,His31,Glu34,Lys35,Aib36,Lys37]-GLP-1-(7-37)-peptidyl-Glu-Phe-Leu amide (peptide)
peptide: H[Aib]EGTFTSDVSSYLEGEKVKEFIEHLVEK[Aib]KEFL-NH2
modifications: N-terminus assumed
SMILES: CC[C@H](C)[C@H](NC(=O)[C@H](Cc1ccccc1)NC(=O)[C@H](CCC(=O)O)NC(=O)[C@H](CCCCN)NC(=O)[C@@H](NC(=O)[C@H](CCCCN)NC(=O)[C@H](CCC(=O)O)NC(=O)CNC(=O)[C@H](CCC(=O)O)NC(=O)[C@H](CC(C)C)NC(=O)[C@H](Cc1ccc(O)cc1)NC(=O)[C@H](CO)NC(=O)[C@H](CO)NC(=O)[C@@H](NC(=O)[C@H](CC(=O)O)NC(=O)[C@H](CO)NC(=O)[C@@H](NC(=O)[C@H](Cc1ccccc1)NC(=O)[C@@H](NC(=O)CNC(=O)[C@H](CCC(=O)O)NC(=O)C(C)(C)NC(=O)[C@@H](N)Cc1c[nH]cn1)[C@@H](C)O)[C@@H](C)O)C(C)C)C(C)C)C(=O)N[C@@H](CCC(=O)O)C(=O)N[C@@H](Cc1c[nH]cn1)C(=O)N[C@@H](CC(C)C)C(=O)N[C@H](C(=O)N[C@@H](CCC(=O)O)C(=O)N[C@@H](CCCCN)C(=O)NC(C)(C)C(=O)N[C@@H](CCCCN)C(=O)N[C@@H](CCC(=O)O)C(=O)N[C@@H](Cc1ccccc1)C(=O)N[C@@H](CC(C)C)C(N)=O)C(C)C

Target: human GLP-1 receptor (human, UniProt P43220)
Test: cell-based or functional assay

Q: How did the “CRE luciferase EC50, 0% HSA” value turn out when B1 was run?
A: The value was 0.461 nM.

Q: What about the “CRE luciferase EC50, 1% HSA” value of the same binder?
A: The value was 0.111 nM.

Q: For B2, which “CRE luciferase EC50, 0% HSA” value is on record?
A: Its value is 0.022 nM.

Q: And the “CRE luciferase EC50, 1% HSA” value?
A: Its value is 0.015 nM.

Q: How did the “CRE luciferase EC50, 0% HSA” value turn out when B3 was run?
A: The value was 0.44 nM.

Q: What about the “CRE luciferase EC50, 1% HSA” value of the same binder?
A: The value was 0.171 nM.

Q: For B4, which “CRE luciferase EC50, 0% HSA” value is on record?
A: The value was 0.031 nM.

Q: And the “CRE luciferase EC50, 1% HSA” value?
A: Its value is 0.02 nM.

Q: Which results are given for B5?
A: CRE luciferase EC50, 0% HSA: 0.191 nM; CRE luciferase EC50, 1% HSA: 0.069 nM

Q: Which results are given for B6?
A: CRE luciferase EC50, 0% HSA: 0.971 nM; CRE luciferase EC50, 1% HSA: 0.231 nM

Q: With B7 as the binder, how does the “CRE luciferase EC50, 0% HSA” value read?
A: The value was 0.014 nM.

Q: And the “CRE luciferase EC50, 1% HSA” value?
A: The value was 0.005 nM.

Q: Which “CRE luciferase EC50, 0% HSA” value does the source give for B8 here?
A: The value was 0.126 nM.

Q: What about the “CRE luciferase EC50, 1% HSA” value of the same binder?
A: The value was 0.037 nM.

Q: For B9, which “CRE luciferase EC50, 0% HSA” value is on record?
A: The value was 0.487 nM.

Q: What about the “CRE luciferase EC50, 1% HSA” value of the same binder?
A: Its value is 0.174 nM.

Q: B10 was tested. Which “CRE luciferase EC50, 0% HSA” value did it give?
A: Its value is 1.84 nM.

Q: What about the “CRE luciferase EC50, 1% HSA” value of the same binder?
A: Its value is 0.593 nM.
